Source: patent US20070020327A1

Key:
[1] = target: HLA-A*0301 (human); experiment: competition with 125I-labelled probe peptide for purified HLA-A*0301, gel filtration
[2] = target: HLA-A*0201 (human); experiment: competition with 125I-labelled standard peptide 941.01 ([..]) for purified HLA-A*0201, gel filtration
[3] = target: HLA-A*0202 (human); experiment: competition with 125I-labelled standard peptide 941.01 ([..]) for purified HLA-A*0202, gel filtration
[4] = target: HLA-A*0203 (human); experiment: competition with 125I-labelled standard peptide 941.01 ([..]) for purified HLA-A*0203, gel filtration
[5] = target: HLA-A*0206 (human); experiment: competition with 125I-labelled standard peptide 941.01 ([..]) for purified HLA-A*0206, gel filtration
[6] = target: HLA-A*6802 (human); experiment: competition with 125I-labelled standard peptide 1072.34 ([..]) for purified HLA-A*6802, gel filtration
[7] = target: HLA-A*0201 (human); experiment: competition with 125I-labelled standard peptide for purified HLA, gel filtration; ratio = IC50 standard / IC50 test peptide
[8] = target: HLA-A*0202 (human); experiment: as above
[9] = target: HLA-A*0203 (human); experiment: as above
[10] = target: HLA-A*0206 (human); experiment: as above
[11] = target: HLA-A*6802 (human); experiment: as above
[12] = target: HLA-A*0201 (human); experiment: competitive inhibition of 125I-labelled standard peptide binding to purified HLA, gel filtration; ratio = IC50 standard / IC50 test peptide
[13] = target: HLA-A*6802 (human); experiment: as above; conditions: remark: other sources report otherwise
[14] = target: HLA-A*0201 (human); experiment: inhibition of 125I-standard peptide binding to purified HLA, gel filtration
[15] = target: HLA-A*0203 (human); experiment: as above
[16] = target: HLA-A*6802 (human); experiment: as above
[17] = target: HLA-A*0206 (human); experiment: as above
[18] = target: HLA-A*0201 (human); experiment: competition for purified HLA with 125I-labelled standard peptide 941.01 [..] as competitor, gel filtration; conditions: scale: ratio
[19] = target: HLA-A*0202 (human); experiment: as above; conditions: scale: ratio
[20] = target: HLA-A*0203 (human); experiment: as above; conditions: scale: ratio
[21] = target: HLA-A*6802 (human); experiment: competition for purified HLA with 125I-labelled standard peptide 1072.34 [..] as competitor, gel filtration; conditions: scale: ratio
[22] = target: HLA-A*0301 (human); experiment: competition with 125I-labelled standard peptide for purified HLA, gel filtration; conditions: scale: ratio
[23] = target: HLA-A*1101 (human); experiment: as above; conditions: scale: ratio
[24] = target: HLA-A*3301 (human); experiment: as above; conditions: scale: ratio
[25] = target: HLA-A*6801 (human); experiment: as above; conditions: scale: ratio
[26] = target: HLA-A*1101 (human); experiment: competition with 125I-labelled standard peptide 940.06 ([..], IC50 […] nM) for purified HLA-A*1101; gel filtration
[27] = target: HLA-A*0301 (human); experiment: competition with 125I-labelled standard peptide for purified HLA-A*0301, gel filtration; relative binding
[28] = target: HLA-A*0201 (human); experiment: competition binding to purified HLA, 125I-labelled standard peptide, gel filtration; ratio = IC50 standard / IC50 test peptide
[29] = target: HLA-A*0202 (human); experiment: as above; conditions: remark: other sources report otherwise
[30] = target: HLA-A*0203 (human); experiment: as above
[31] = target: HLA-A*0206 (human); experiment: as above; conditions: remark: other sources report otherwise
[32] = target: HLA-B*0702 (human); experiment: competition with 125I-labeled standard peptide (1075.23 [..]) for purified HLA-B*0702, gel filtration
[33] = target: HLA-A*0202 (human); experiment: competitive inhibition of 125I-labelled standard peptide binding to purified HLA, gel filtration
[34] = target: HLA-A*0206 (human); experiment: as above
[35] = target: HLA-A*6802 (human); experiment: as above
[36] = target: HLA-A*0101 molecule, purified from cell lysates (human); experiment: competition with 125I-labelled standard peptide for purified HLA-A*0101, gel filtration
[37] = target: HLA-A*0101 (human); experiment: inhibition of 125I-labeled standard peptide 944.02 binding to purified HLA-A*0101, gel filtration
[38] = target: HLA-A*1101 (human); experiment: competition with 125I-labeled standard peptide for purified HLA-A*1101, gel filtration; relative binding
[39] = target: HLA-A*0201 (purified HLA class I molecule) (human); experiment: competition with 125I-labelled standard peptide for purified HLA, gel filtration
[40] = target: HLA-A*0202 (purified HLA class I molecule) (human); experiment: as above
[41] = target: HLA-A*0203 (purified HLA class I molecule) (human); experiment: as above
[42] = target: HLA-A*0206 (purified HLA class I molecule) (human); experiment: as above
[43] = target: HLA-A*0202 (human); experiment: competitive inhibition of 125I-labelled standard peptide binding to purified HLA, gel filtration; ratio = IC50 standard / IC50 test peptide
[44] = target: HLA-A*0203 (human); experiment: as above
[45] = target: HLA-A*0206 (human); experiment: as above
[46] = remark: other sources report otherwise

Binder: PANEYAYRR (modifications not checked) [PSM 273 peptide …]
- binding affinity ratio (IC50 of the standard peptide / IC50 of the test peptide) [1]: 0.0001

Binder: VASRGRAV (modifications not checked) [PSA peptide VASRGRAV (position 38, 8 amino acids)]
- binding affinity ratio (IC50 of standard peptide / IC50 of test peptide) [2]: -0.0001
- binding affinity ratio (IC50 of standard peptide / IC50 of test peptide) [3]: -0.0001
- binding affinity ratio (IC50 of standard peptide / IC50 of test peptide) [4]: -0.0001
- binding affinity ratio (IC50 of standard peptide / IC50 of test peptide) [5]: -0.0001
- binding affinity ratio (IC50 of standard peptide / IC50 of test peptide) [6]: -0.0001

Binder: QVHPQKVT (modifications not checked) [PSA peptide QVHPQKVT, position 182, 8 amino acids]
- binding affinity ratio (ratio to standard peptide) [7]: -0.0001
- binding affinity ratio (ratio to standard peptide) [8]: -0.0001
- binding affinity ratio (ratio to standard peptide) [9]: 0.0001
- binding affinity ratio (ratio to standard peptide) [10]: -0.0001
- binding affinity ratio (ratio to standard peptide) [11]: -0.0001

Binder: VLGLPTQEPA (modifications not checked) [… (Kallikrein, position 138)]
- binding affinity ratio [12, 46]: 0.0008
- binding affinity ratio [13]: -0.0001

Binder: LLSNDMCA (modifications not checked) [Kallikrein 178 LLSNDMCA]
- binding affinity ratio (IC50 standard peptide / IC50 test peptide) (ratio to standard peptide) [14]: 0.0003
- binding affinity ratio (IC50 standard peptide / IC50 test peptide) (ratio to standard peptide) [15]: 0.0003
- binding affinity ratio (IC50 standard peptide / IC50 test peptide) (ratio to standard peptide) [16]: -0.0001

Binder: LLRLSEPAKIT (modifications not checked) [Kallikrein 123 …]
- binding affinity ratio (IC50 standard peptide / IC50 test peptide) (ratio to standard peptide) [14]: 0.0002
- binding affinity ratio (IC50 standard peptide / IC50 test peptide) (ratio to standard peptide) [17]: -0.0001
- binding affinity ratio (IC50 standard peptide / IC50 test peptide) (ratio to standard peptide) [16]: -0.0001

Binder: GVLVHPQWVLT (modifications not checked) [… (Kallikrein position 52 / PSA position 48, 11-mer)]
- binding affinity ratio [18]: 0.0002
- binding affinity ratio [19]: 0.0005
- binding affinity ratio [20]: 0.0005
- binding affinity ratio [21]: -0.0001

Binder: TTCYASGWGSI (modifications not checked) [Kallikrein (hK2) peptide … (position 150, 11 amino acids); the same letters in PSA at position 146]
- binding affinity ratio (IC50 of standard peptide / IC50 of test peptide) [2]: -0.0001
- binding affinity ratio (IC50 of standard peptide / IC50 of test peptide) [3]: 0.0009
- binding affinity ratio (IC50 of standard peptide / IC50 of test peptide) [5]: 0.0005

Binder: PAELTDAVK (modifications not checked) [… (PSA, position 125)]
- binding affinity ratio [22]: 0.0002
- binding affinity ratio [23]: 0.0002
- binding affinity ratio [24]: 0.0006
- binding affinity ratio [25]: 0.0001

Binder: PANEYAYRR (modifications not checked) [PSM.273 peptide …]
- binding affinity ratio (IC50 of standard peptide / IC50 of test peptide) [26]: 0.0002

Binder: GFFLLGFLF (modifications not checked) [PSM peptide … (PSM position 31, 9 amino acids)]
- binding affinity ratio (IC50 of the standard peptide / IC50 of the test peptide) [27]: 0.0005

Binder: DLPTQEPALGT (modifications not checked) [… (PSA, position 136, 11 amino acids)]
- binding affinity ratio [28, 46]: 0.0041
- binding affinity ratio [29]: 0.018
- binding affinity ratio [30, 46]: 0.01
- binding affinity ratio [31]: 0.0001

Binder: YPNKTHPNY (modifications not checked) [PSM peptide … (position 119, 9 amino acids)]
- binding affinity ratio (IC50 of standard peptide / IC50 of test peptide) [32]: 0.0001

Binder: KITDVVKV (modifications not checked) [KITDVVKV (Kallikrein, position 131)]
- binding affinity ratio (ratio to standard peptide) [33]: 0.0002
- binding affinity ratio (ratio to standard peptide) [34]: 0.0002
- binding affinity ratio (ratio to standard peptide) [35]: -0.0001

Binder: GMPEGDLVY (modifications not checked) [PSM peptide … (position 168, 9 amino acids)]
- binding affinity ratio (IC50 of the standard peptide / IC50 of the test peptide) [36]: 0.0001

Binder: PSLYTKVVHY (modifications not checked) [PSA 236 peptide …]
- binding affinity ratio (IC50 of the standard peptide / IC50 of the test peptide) [37]: 0.001

Binder: KGEYFVEMY (modifications not checked) [PAP 322 …]
- binding affinity ratio (IC50 of standard peptide / IC50 of test peptide) [38, 46]: 0.0002

Binder: MLCAGRWT (modifications not checked) [PSA peptide MLCAGRWT (position 192, 8 amino acids)]
- binding affinity ratio (IC50 of standard peptide / IC50 of test peptide) [39]: 0.0006
- binding affinity ratio (IC50 of standard peptide / IC50 of test peptide) [40]: 0.0012
- binding affinity ratio (IC50 of standard peptide / IC50 of test peptide) [41]: 0.0033
- binding affinity ratio (IC50 of standard peptide / IC50 of test peptide) [42]: -0.0001

Binder: LAGAKGVILY (modifications not checked) [PSM 219 …]
- binding affinity ratio (IC50 of standard peptide / IC50 of test peptide) [38]: 0.0002

Binder: DTCGGDSGGPL (modifications not checked) [… (Kallikrein, position 207, 11 amino acids)]
- binding affinity ratio [28]: 0.0001
- binding affinity ratio [30]: 0.0005

Binder: VAVYSHGWA (modifications not checked) [… (Kallikrein, position 40)]
- binding affinity ratio [12]: -0.0001
- binding affinity ratio [43]: -0.0001
- binding affinity ratio [44]: 0.0002
- binding affinity ratio [45]: 0.0002
